Reference: US20260207767A1 (ANAVEON, published 2026)
Values belong to the binder of their own block, whether it stands above or below them.

How the values were obtained:
[1] = target: T1, cynoPD-1 His (AcroBiosystems PD1-C5223) (cynomolgus monkey, UniProt B0LAJ3 25-170); assay: SPR, Ab captured, PD-1 analyte
T1 construct: also called cPD-1; cynomolgus PD-1 His-tagged
Procedure: (§1) 10 mM glycine (pH 1.5) as regeneration buffer was injected to flow cells following every dissociation phase.

hPD-1 His-tagged = target: T2, hPD-1 His-tagged (human, UniProt Q15116 25-167); assay: SPR, Ab captured, PD-1 analyte
T2 construct: also called recombinant hPD-1 (AcroBio)
Procedure: as §1

[2] = target: T3, recombinant hPD-1 (construct not stated) (human, UniProt Q15116 25-167, limits assumed); assay: BLI, supernatants
T3 construct: also called huPD-1; Human PD1
Excerpt: In order to remove an N-glycosylation site present in the CDR-L1, mutations were inserted in the CDR-L1 of 21A08. The first asparagine ([…], N) in CDR-L1, was replaced by a serine (Ser, S), Glutamine (Gln, Q), or Alanine (Ala, A).

[3] = target: T4, hPD-1 Avi-Tag Biotin (AcroBiosystems PD1-H82E4) (human, UniProt Q15116 25-167, biotin on Avi-Tag); assay: SPR, Ab captured, PD-1 analyte
T4 construct: bought; also called human PD-1
Procedure: Anti-human Fc IgG (Jackson) was immobilized on amine reactive CM5 chips (GE Healthcare) using 1×HBS-EP+ running buffer (GE Healthcare). The test antibodies were captured at flow rate 10 μl/min with 30 s contact time. […] Regeneration was carried out with 10 mM Glycine-HCl, pH 1.5 at flow rate 10 μL/min. This protocol is to be used, unless stated otherwise, in determination of Kd wherever used to define the KD of antibodies specified herein, with adaptions where necessary with regard to the nature of the interaction partners. […]

[4] = target: T5, cynomolgus PD-1 expressed on cells (cynomolgus monkey, UniProt B0LAJ3 25-288); assay: flow cytometry, CHO-S Cyno-PD-1
T5 construct: also called CHO-S Cyno-PD-1; 293:cyPD1

[5] = target: T6, human PD-1 expressed on cells (human, UniProt Q15116 25-288); assay: flow cytometry, CHO-S hPD-1
T6 construct: whole, on cells; cell line named under assay; also called CHO-S hPD-1; Raji PD-1

[6] = target: T1, cynoPD-1 His (AcroBiosystems PD1-C5223); assay: SPR; second ka column, taken as cynoPD-1
Procedure: Anti-human Fc IgG (Jackson) was immobilized on amine reactive CM5 chips (GE Healthcare) using 1×HBS-EP+ running buffer (GE Healthcare). The test antibodies were captured at flow rate 10 μl/min with 30 s contact time. […] Regeneration was carried out with 10 mM Glycine-HCl, pH 1.5 at flow rate 10 μL/min. This protocol is to be used, unless stated otherwise, in determination of Kd wherever used to define the KD of antibodies specified herein, with adaptions where necessary with regard to the nature of the interaction partners.
Every position in the antibody VH and VL-CDRs was mutated by PCR using a mutagenic primer containing a degenerate codon NNS at a specific CDR position, introducing a combination of all 20 amino acids. The library of single mutants was screened by scFv capture ELISA using a redundancy factor of 4 (on 96-well plate er position). Clones displaying ≥2× ELISA signal compared to the wild-type scFv were sequenced, and clones with unique sequences were re-grown, re-screened by capture ELISA and ranked by dose-dependent ELISA on human and cyno antigens, and by FACS using human antigen expressing cells. Affinity improving mutations were used to design a combinatorial library using the Kunkel method. The library was screened by scFv capture ELISA using the redundancy factor of 4 (4× number of combinations). Clones displaying ≥2× ELISA signal compared to the wild-type scFv were sequenced, and clones with unique sequences were re-grown, re-screened by capture ELISA and ranked by dose-dependent ELISA on human and cyno antigens, and by FACS using human antigen expressing cells.

[7] = target: T3, recombinant hPD-1 (construct not stated); assay: ELISA
[8] = target: T7, recombinant cynoPD-1 (construct not stated) (cynomolgus monkey, UniProt B0LAJ3 25-170); assay: ELISA
T7 construct: not shown: probably His as elsewhere

[9] = target: T6, human PD-1 expressed on cells; assay: cell-based or functional assay
[10] = target: T8, IL-2R CD122-CD132 on Jurkat-PD1+CD122+ cells (UniProt P14784 27-551; P31785 23-369); assay: cell-based or functional assay
T8 sequence (looked up) 1: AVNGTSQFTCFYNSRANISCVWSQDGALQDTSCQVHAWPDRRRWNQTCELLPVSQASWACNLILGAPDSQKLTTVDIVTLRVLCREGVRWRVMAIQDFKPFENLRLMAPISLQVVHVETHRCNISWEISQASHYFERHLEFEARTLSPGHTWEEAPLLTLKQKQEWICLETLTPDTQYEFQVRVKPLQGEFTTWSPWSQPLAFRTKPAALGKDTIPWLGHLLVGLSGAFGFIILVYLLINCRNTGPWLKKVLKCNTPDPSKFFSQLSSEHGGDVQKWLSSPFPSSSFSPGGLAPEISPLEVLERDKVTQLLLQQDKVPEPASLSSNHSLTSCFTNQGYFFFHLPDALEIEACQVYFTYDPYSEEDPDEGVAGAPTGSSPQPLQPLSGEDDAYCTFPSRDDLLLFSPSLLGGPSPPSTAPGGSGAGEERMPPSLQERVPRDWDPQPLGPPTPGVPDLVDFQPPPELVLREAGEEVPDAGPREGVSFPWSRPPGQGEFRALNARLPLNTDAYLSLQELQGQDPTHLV
T8 sequence (looked up) 2: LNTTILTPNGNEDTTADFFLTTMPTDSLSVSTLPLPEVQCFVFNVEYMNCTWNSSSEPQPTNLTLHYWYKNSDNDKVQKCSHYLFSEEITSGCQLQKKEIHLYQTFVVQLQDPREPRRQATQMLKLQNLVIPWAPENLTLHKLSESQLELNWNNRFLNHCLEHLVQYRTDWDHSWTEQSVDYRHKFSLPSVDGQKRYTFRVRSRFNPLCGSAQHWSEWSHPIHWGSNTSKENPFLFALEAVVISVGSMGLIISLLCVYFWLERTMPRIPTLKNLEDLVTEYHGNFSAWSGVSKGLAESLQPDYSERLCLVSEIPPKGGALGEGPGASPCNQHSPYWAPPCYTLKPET

T2 sequence (Q15116 25-167 limits assumed): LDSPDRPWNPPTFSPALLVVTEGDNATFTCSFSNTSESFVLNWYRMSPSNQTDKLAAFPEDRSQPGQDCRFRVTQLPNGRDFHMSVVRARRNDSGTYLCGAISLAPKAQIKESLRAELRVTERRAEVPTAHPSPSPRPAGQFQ
T4 sequence (Q15116 25-167 limits assumed): as above
T3 sequence (Q15116 25-167 limits assumed): as above
T5 sequence (B0LAJ3 entry or part of it limits assumed): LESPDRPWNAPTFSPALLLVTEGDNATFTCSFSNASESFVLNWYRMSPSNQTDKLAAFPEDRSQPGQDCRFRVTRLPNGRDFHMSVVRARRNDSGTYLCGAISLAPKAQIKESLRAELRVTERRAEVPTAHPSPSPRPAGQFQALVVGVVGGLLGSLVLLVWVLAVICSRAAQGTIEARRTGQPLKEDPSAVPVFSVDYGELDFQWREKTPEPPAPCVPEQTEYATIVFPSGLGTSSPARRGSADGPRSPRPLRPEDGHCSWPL
T7 sequence (B0LAJ3 entry or part of it limits assumed): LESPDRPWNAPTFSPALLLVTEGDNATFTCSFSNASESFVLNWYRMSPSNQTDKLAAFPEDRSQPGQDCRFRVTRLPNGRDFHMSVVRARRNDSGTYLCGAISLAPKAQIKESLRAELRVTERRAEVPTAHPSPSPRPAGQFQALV
T6 sequence (Q15116 25-288): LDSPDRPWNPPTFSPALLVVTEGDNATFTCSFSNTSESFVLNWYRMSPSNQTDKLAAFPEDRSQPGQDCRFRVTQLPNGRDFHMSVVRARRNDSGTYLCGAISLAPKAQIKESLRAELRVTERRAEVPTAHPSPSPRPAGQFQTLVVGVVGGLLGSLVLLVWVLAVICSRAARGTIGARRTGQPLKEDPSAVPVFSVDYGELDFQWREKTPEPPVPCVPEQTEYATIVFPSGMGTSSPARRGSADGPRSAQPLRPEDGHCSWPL

B1: 21A08A (antibody, V domains shown)
VH: EVQLLESGGGLVQPGGSLRLSCAASGFTFSINAMTWVRQAPGKGLEWVSTISGSGFSTYYADSLKGRFTISRDNSKNTLYLQMNSLRAEDTAVYYCAKEVYGDYWGQGTLVTVSS
VL: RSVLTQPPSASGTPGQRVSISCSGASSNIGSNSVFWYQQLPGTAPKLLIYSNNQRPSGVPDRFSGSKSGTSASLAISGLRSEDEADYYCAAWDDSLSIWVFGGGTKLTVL
notes: position not given
Kd [1]: 1.7 nM
koff [1]: 9.6e-05 s⁻¹
kon [1]: 56000 M⁻¹ s⁻¹
Kd (hPD-1 His-tagged): < 0.16 nM
koff (hPD-1 His-tagged): < 1e-05 s⁻¹
kon (hPD-1 His-tagged): 63000 M⁻¹ s⁻¹
Kd [2]: 1.81 nM
koff [2]: 0.000181 s⁻¹

B2: XVT458-z2-m1 (antibody, V domains shown)
VH: QVQLVQSGAEVKKPGASVKVSCKASGYTFTNFYIHWVRQAPGQGLEWMGSIYPNYGFTAYNQKFKDRVTMTVDTSTSTAYMELRSLRSDDTAVYYCARGYSYAMDYWGQGTTVTVSS
VL: DIQMTQSPSSVSASVGDRVTITCSASQGIWGDLNWYQQKPGKAPKLLIYHTSQLHSDVPSRFSGSGSGTDFTLTISSLQPEDFATYYCQGYSKDLLTFGGGTKLEIK
notes: IgG format; also called z2-XVT458-m1; z2_XVT458m1
Kd [3]: 0.148 nM
koff [3]: 3.28e-05 s⁻¹
kon [3]: 222000 M⁻¹ s⁻¹
Max MFI [4]: 70 MFI
EC50 [5]: 1.5 nM
Max MFI [5]: 41000 MFI
kon [6]: 185000 M⁻¹ s⁻¹
EC50 [7]: 0.083 nM
Max OD [7]: 3.39 OD
EC50 [8]: 0.087 nM
Max OD [8]: 3.58 OD

B5: NZA596 (bispecific antibody, human IgG1, kappa, lambda, L234A L235A)
heavy 1: EVQLLESGGGLVQPGGSLRLSCAASGFTFSINAMTWVRQAPGKGLEWVSTISGSGFSTYYADSLKGRFTISRDNSKNTLYLQMNSLRAEDTAVYYCAKEVYGDYWGQGTLVTVSSASTKGPSVFPLAPSSKSTSGGTAALGCLVKDYFPEPVTVSWNSGALTSGVHTFPAVLQSSGLYSLSSVVTVPSSSLGTQTYICNVNHKPSNTKVDKRVEPKSCDKTHTCPPCPAPEAAGGPSVFLFPPKPKDTLMISRTPEVTCVVVDVSHEDPEVKFNWYVDGVEVHNAKTKPREEQYNSTYRVVSVLTVLHQDWLNGKEYKCKVSNKALAAPIEKTISKAKGQPREPQVCTLPPSREEMTKNQVSLSCAVKGFYPSDIAVEWESNGQPENNYKTTPPVLDSDGSFFLVSKLTVDKSRWQQGNVFSCSVMHEALHNHYTQKSLSLSPGK
light 1: not shown
heavy 2: EVQLVQSGAEVKKPGESLKISCKGSGYAFTNYLIEWVRQMPGKGLEWMGVINPGSGGTNYNEKFKGQVTISADKSISTAYLQWSSLKASDTAMYYCARWRGEGYYAYFDVWGQGTTVTVSSASTKGPSVFPLAPSSKSTSGGTAALGCLVKDYFPEPVTVSWNSGALTSGVHTFPAVLQSSGLYSLSSVVTVPSSSLGTQTYICNVNHKPSNTKVDKRVEPKSCDKTHTCPPCPAPEAAGGPSVFLFPPKPKDTLMISRTPEVTCVVVDVSHEDPEVKFNWYVDGVEVHNAKTKPREEQYNSTYRVVSVLTVLHQDWLNGKEYKCKVSNKALAAPIEKTISKAKGQPREPQVYTLPPCREEMTKNQVSLWCLVKGFYPSDIAVEWESNGQPENNYKTTPPVLDSDGSFFLYSKLTVDKSRWQQGNVFSCSVMHEALHNHYTQKSLSLSPGK
light 2: not shown
EC50 of NZA596, % pSTAT5+ Jurkat PD-1+CD122+ cells, pre-incubation with Medium [9]: 0.85 nM
EC50 of NZA596, pre-incubation with 21A08Ap1 [9]: 15.6 nM
EC50 of NZA596, pre-incubation with Cemiplimab [9]: 1.67 nM
EC50 of NZA596, pre-incubation with Cetrelimab [9]: 0.76 nM
EC50 of NZA596, pre-incubation with Dostarlimab (m102) [9]: 0.96 nM
EC50 of NZA596, pre-incubation with Ezabenlimab [9]: 1.71 nM
EC50 of NZA596, pre-incubation with Nivolumab [9]: 1.1 nM
EC50 of NZA596, pre-incubation with Pembrolizumab [9]: 1.02 nM
EC50 of NZA596, pre-incubation with Tislelizumab [9]: 1.47 nM
EC50 of NZA596, pre-incubation with Toripalimab [9]: 0.65 nM
EC50 of NZA596, pre-incubation with Zeluvalimab [9]: 0.88 nM
fold reduction in NZA596 Potency, pre-incubation with 21A08Ap1 [9]: 18.2 fold
fold reduction in NZA596 Potency, pre-incubation with Cemiplimab [9]: 1.95 fold
fold reduction in NZA596 Potency, pre-incubation with Cetrelimab [9]: 0.89 fold
fold reduction in NZA596 Potency, pre-incubation with Dostarlimab (m102) [9]: 1.12 fold
fold reduction in NZA596 Potency, pre-incubation with Ezabenlimab [9]: 2 fold
fold reduction in NZA596 Potency, pre-incubation with Nivolumab [9]: 1.28 fold
fold reduction in NZA596 Potency, pre-incubation with Pembrolizumab [9]: 1.2 fold
fold reduction in NZA596 Potency, pre-incubation with Tislelizumab [9]: 1.72 fold
fold reduction in NZA596 Potency, pre-incubation with Toripalimab [9]: 0.77 fold
fold reduction in NZA596 Potency, pre-incubation with Zeluvalimab [9]: 1.03 fold
EC50 (read off the curve), % pSTAT5+ of CFSE+ cells pre-blocked with Nivolumab [panel CFSE+ cells] [10]: ~0.9 nM
EC50 (read off the curve), % pSTAT5+ of CFSE+ cells pre-blocked with Pembrolizumab [panel CFSE+ cells] [10]: ~0.9 nM
EC50 (read off the curve), % pSTAT5+ of CFSE+ cells; No blocking [panel CFSE+ cells] [10]: ~0.6 nM
EC50 (read off the curve), % pSTAT5+ of CTV+ cells; No blocking [panel CTV+ cells] [10]: ~0.5 nM
EC50 (read off the curve), % pSTAT5+ of CTV+ cells; mixed with CFSE+ cells pre-blocked with Nivolumab [panel CTV+ cells] [10]: ~0.6 nM
EC50 (read off the curve), % pSTAT5+ of CTV+ cells; mixed with CFSE+ cells pre-blocked with Parental mAb [panel CTV+ cells] [10]: ~0.6 nM
EC50 (read off the curve), % pSTAT5+ of CTV+ cells; mixed with CFSE+ cells pre-blocked with Pembrolizumab [panel CTV+ cells] [10]: ~0.6 nM

Further lines, results first:

Kd [3]: 0.417 nM
koff [3]: 6.57e-05 s⁻¹
kon [3]: 158000 M⁻¹ s⁻¹
Max MFI [4]: 124 MFI
EC50 [5]: 1.34 nM
Max MFI [5]: 41100 MFI
kon [6]: 138000 M⁻¹ s⁻¹
EC50 [7]: 0.089 nM
Max OD [7]: 3.37 OD
EC50 [8]: 0.094 nM
Max OD [8]: 3.54 OD
B3: XVT458-z2-m3 (antibody, V domains shown)
VH: QVQLVQSGAEVKKPGASVKVSCKASGYTFTNFYIHWVRQAPGQGLEWMGRIYPNYGITAYNQKFKDRVTMTVDTSTSTAYMELRSLRSDDTAVYYCARGYSYAMDYWGQGTTVTVSS
VL: DIQMTQSPSSVSASVGDRVTITCSASQGISGDLNWYQQKPGKAPKLLIYHTSQRHSDVPSRFSGSGSGTDFTLTISSLQPEDFATYYCQGYSKDLLTFGGGTKLEIK
notes: IgG format; also called z2_XVT458m3

Kd [3]: 1.24 nM
koff [3]: 0.00019 s⁻¹
kon [3]: 153000 M⁻¹ s⁻¹
Max MFI [4]: 367 MFI
EC50 [5]: 1.15 nM
Max MFI [5]: 42800 MFI
kon [6]: 127000 M⁻¹ s⁻¹
EC50 [7]: 0.076 nM
Max OD [7]: 3.34 OD
EC50 [8]: 0.086 nM
Max OD [8]: 3.56 OD
B4: XVT458-z2-m2 (antibody, V domains shown)
VH: QVQLVQSGAEVKKPGASVKVSCKASGYTFTNFYIHWVRQAPGQGLEWMGRIYPNYGFTAYNQKFKDRVTMTVDTSTSTAYMELRSLRSDDTAVYYCARGYSYAMDYWGQGTTVTVSS
VL: DIQMTQSPSSVSASVGDRVTITCSASQGIYGDLNWYQQKPGKAPKLLIYHTSSLHSGVPSRFSGSGSGTDFTLTISSLQPEDFATYYCQAYSKDLLTFGGGTKLEIK
notes: IgG format; also called z2_XVT458m2
